Results taken from publication PMC6533540, “DprA Is Essential for Natural Competence in Riemerella anatipestifer and Has a Conserved Evolutionary Mechanism”.

T1: DprA R123E (Riemerella anatipestifer ATCC11845, UniProt E4TBU2 1-367, R123E)
T1 sequence: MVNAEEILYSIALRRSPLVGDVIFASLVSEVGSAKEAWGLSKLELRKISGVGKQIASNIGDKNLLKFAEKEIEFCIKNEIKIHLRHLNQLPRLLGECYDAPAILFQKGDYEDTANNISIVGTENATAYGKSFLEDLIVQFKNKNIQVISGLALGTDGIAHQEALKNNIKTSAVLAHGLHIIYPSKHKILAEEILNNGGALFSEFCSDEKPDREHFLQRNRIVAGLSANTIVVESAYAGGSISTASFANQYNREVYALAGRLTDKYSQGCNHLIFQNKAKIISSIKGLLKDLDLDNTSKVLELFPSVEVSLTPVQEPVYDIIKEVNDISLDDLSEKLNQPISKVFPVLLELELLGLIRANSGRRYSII


Target: T1, DprA R123E
Assay: EMSA; up to 20 uM DprA R123E; 25 mM HEPES pH 7.0, 150 mM NaCl, 10% glycerol, 1 mM DTT, 0.05% IGEPAL, 30 min at 30 C; 8% native PAGE in 0.5x TBE on ice
Settings: protein: recombinant, tags: C-terminal His6, chain copies: 2, label: biotin

Binder	binding result	binding result (blunt)
AAAAACTACGGAACTGACTAAAGGCAGAAAAACTAAACGG (ssDNA) [RA-ssDNA2]	no binding	
TAGGCTCTGCTAAGGAAGCGTGGGGTCTGTCTAAGTTGGA (ssDNA) [RA-ssDNA1]	no binding	
dsDNA annealed from RA-ssDNA1 (dsDNA) DNA 1: TAGGCTCTGCTAAGGAAGCGTGGGGTCTGTCTAAGTTGGA DNA 2: TCCAACTTAGACAGACCCCACGCTTCCTTAGCAGAGCCTA		no binding
